Each block holds one binder with its values, some of them ahead of it.
Assays:
[1] = biological target: T1, human TIM3 on cells (transfected CHO cells, activated human T cells, Th1 cells, TILs) (human, UniProt Q8TDQ0 22-300); experiment: flow cytometry, human TIM3 positive cells (activated human T cells per paragraph 648), GMFI (PE); EC50 unit inferred, unit taken from the axis label ug/mL
T1 construct: also called hTIM3

[2] = biological target: T2, cynomolgus TIM3 on cells (transfected CHO cells, activated cyno T cells, cyno spleen) (cynomolgus); experiment: saturation binding of 125I-labeled antibody to CHO cells with cyno TIM3 (CHOcyno TIM3 25K), table row Kd, column Total; the cell has no unit, nM is taken from the concentration axis
T2 construct: also called cyno TIM3
T2 chain: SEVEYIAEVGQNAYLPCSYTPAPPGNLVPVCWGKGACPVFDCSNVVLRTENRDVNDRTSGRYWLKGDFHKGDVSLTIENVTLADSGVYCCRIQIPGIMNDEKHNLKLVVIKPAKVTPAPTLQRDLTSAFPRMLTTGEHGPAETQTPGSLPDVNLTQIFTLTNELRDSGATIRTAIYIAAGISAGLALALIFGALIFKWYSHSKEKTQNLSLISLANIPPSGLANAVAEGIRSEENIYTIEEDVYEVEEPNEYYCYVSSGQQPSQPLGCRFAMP

[3] = biological target: T1, human TIM3 on cells (transfected CHO …); experiment: saturation binding of 125I-labeled antibody to CHO cells with human TIM3 (CHOhu TIM3 25K), table row Kd, column Specific Binding; the cell has no unit, nM is taken from the concentration axis and the box below
[4] = biological target: T1, human TIM3 on cells (transfected CHO …); experiment: saturation binding of 125I-labeled antibody to CHO cells with human TIM3 (CHOhu TIM3 25K), table row Kd, column Total; the cell has no unit, nM is taken from the concentration axis
[5] = biological target: T3, Human TIM3-IgV (Example 22) (human, UniProt Q8TDQ0 22-130); experiment: SPR Biacore T200, 37 C; antibody captured on anti-hFc chip, TIM3 protein as analyte, single cycle kinetics, 1:1 model
T3 construct: also called hTim3-IgV; hTIM3-IgV

B1: anti-TIM3 monoclonal antibody 13A3 (antibody, V domains shown)
VH: QLQLQESGPGLVKPSETLSLTCTVSGGSISSRSYYWGWIRQPPGKGLEWIGSIYYSGFTYYNPSLKSRVTISVDTSKNQFSLKLSSVTAADTAVYYCATGGPYGDYAHWFDPWGQGTLVTVSS
VL: not shown
notes: also called 13A3-g4
EC50 [1]: 0.0116 mg/L

B2: TIM3.18·IgG1.3 (antibody, V domains shown)
VH: QLQLQESGPGLVKPSETLSLTCTVSGGSISSRSYYWGWIRQPPGKGLEWIGSIYYSGFTYYQPSLKSRVTISVDTSKNQFSLKLSSVTAADTAVYYCATGGPYGDYAHWFEPWGQGTLVTVSS
VL: not shown
notes: also called TIM3.18 (13A3) IgG1.3f (N60Q/D101E)
Kd [2]: 0.581 nM
Kd [3]: 0.262 nM
Kd [4]: 0.278 nM

B7: TIM3.24 (14H7) (antibody, V domains shown)
VH: QVHLVESGGGLVKPGGSLRLSCTAFSDYYMSWIRQAPGKGLEWLSYISNSGSIIYYADSVKGRFTISRDNAKNSVYLQMNSLRAEDTAVYYCARGRIGFFDYWGPGTLVTVSS
VL: not shown
notes: also called 14H7/TIM3.24
Kd [5]: 14 nM
koff [5]: 0.011 s⁻¹
kon [5]: 780000 M⁻¹ s⁻¹

Now from value to binder:

Kd [5]: 7.1 nM
B3: Tim3.18 (13A3 VH-N60Q-D101E), constant region not stated (antibody, V domains shown)
VH: QLQLQESGPGLVKPSETLSLTCTVSGGSISSRSYYWGWIRQPPGKGLEWIGSIYYSGFTYYQPSLKSRVTISVDTSKNQFSLKLSSVTAADTAVYYCATGGPYGDYAHWFEPWGQGTLVTVSS
VL: not shown

EC50 [1]: 0.0229 mg/L
B4: anti-TIM3 monoclonal antibody 23B3 (antibody, V domains shown)
VH: QVQLVGSGGGLVKPGGSLRLSCAASGFTFSDYYMSWIRQAPGKGLEWVSFISGSGSIIYYADSVKGRFTISRDNAKNSLDLQMNSLRAEDTAVYYCARDGMVRGMNFYGMDVWGQGTTVTVSS
VL: not shown

Kd [5]: 2.2 nM
koff [5]: 0.0013 s⁻¹
kon [5]: 600000 M⁻¹ s⁻¹
B5: TIM3.25 (23B3 VH-G6E-D79Y) (antibody, V domains shown)
VH: QVQLVESGGGLVKPGGSLRLSCAASGFTFSDYYMSWIRQAPGKGLEWVSFISGSGSIIYYADSVKGRFTISRDNAKNSLYLQMNSLRAEDTAVYYCARDGMVRGMNFYGMDVWGQGTTVTVSS
VL: not shown

EC50 [1]: 0.0139 mg/L
B6: anti-TIM3 monoclonal antibody 14H7 (antibody, V domains shown)
VH: QVHLVESGGGLVKPGGSLRLSCTAFSDYYMSWIRQAPGKGLEWLSYISNSGSIIYYADSVKGRFTISRDNAKNSVYLQMNSLRAEDTAVYYCARGRIGFFDYWGPGTLVTVSS
VL: not shown
